Patent US11896644B2, “Inhibition of beta-arrestin oligomerization in tauopathy” (UNIVERSITY OF SOUTH FLORIDA, priority 2020, dated 2024)

How the values were obtained:
p62 autophagy flux = conditions: primary neurons, rAAV9 mCherry-EGFP-p62
Source text: To directly test this hypothesis, the mCherry-EGFP-p62 autophagy flux reporter was used. This reporter takes advantage of the sensitivity of GFP to low pH (which quenches the signal) and the insensitivity of mCherry to low pH. Therefore, colocalized red and green puncta are indicative of non-lysosomal p62 at steady-state.

[1] = system: tau turnover in Hela-V5-tau cells; experiment: Cycloheximide chase of tau turnover in Hela-V5-tau cells; assay type: cell-based; conditions: cycloheximide 100 μg/ml
Source text: (§1) FIGS. 4A to 4E show β-arrestin2 oligomerization is required for suppressing tau turnover. […] Data are shown as box plots or mean±SEM.
When DIV 18 tau P301S cortical primary neurons were transduced with either β-arrestin2 ΔIP6C or ΔIP6N lentivirus, an approximately 50% reduction in tau compared to control was evident (FIGS. 4A,4B), which represents a key finding relevant to both mechanism of action and potential therapeutic strategies. […] Also investigated was whether β-arrestin2 oligomerization is required for slowing tau turnover by disrupting oligomerization using these mutants in several models. […] To determine whether β-arrestin2 oligomerization status alters tau aggregation itself, filter-trap assays were performed from Hela-V5-tau cells transfected with β-arrestin2 variants, in which tau aggregates from detergent-soluble and-insoluble lysates were captured by cellulose acetate membranes and assessed by immunoblotting.

[2] = biological target: T1, HA-p62 and GFP-p62 interaction (Homo sapiens, UniProt Q13501); experiment: Co-IP of HA-p62 and GFP-p62 interaction; assay type: cell-based; conditions: Hela-V5-tau cells
T1 construct: #38277; host or cells: Hela-V5-tau cells
Source text: FIGS. 12A to 12E show β-arrestin2 interacts with p62, and β-arrestin2 oligomerization inhibits p62 self-interaction. FIG. 12A contains representative confocal images of mCherry and EGFP in Hela-V5-tau cells transfected with mCherry-GFP-p62 together with control vector, β-arrestin2-flag, or β-arrestin2 ΔIP6N-flag (Scale bar=10 μm). […] The box and whisker plots show all data points, and the box plots show all data points, the median and IQR, and the minimal and maximal values. FIG. 12C contains representative immunoblots of indicated proteins from Hela-V5-tau cells transfected GFP or GFP-β-arrestin2 with/without HA-p62. Note that β-arrestin2 is present in HA immune complexes only in the presence of HA-p62, whereas β-arrestin2 is not detected in control IgG beads. […] Lysates were subjected to IP for HA. […] FIG. 12F show quantification of flag/p62 PLA puncta/cell (N=4 independent experiments, #P<0.0001).
Brain homogenates and cultured cells were lysed with RIPA buffer (50 mM Tris pH 7.4, 150 mM NaCl, 2 mM ethlenediaminetetraacetic acid, 1% NP-40, 0.1% sodium dodecyl sulfate) plus protease and phosphatase inhibitors. Proteins were extracted and centrifuged at 15000 rpm for 15 min at 4° C., and RIPA insoluble fractions were lysed with 5% SDS with 1% β-mercaptoethanol, 50 mM Tris-HCl pH 6.8, 12.5 mM EDTA, 10% glycerol, and 0.02% bromophenol blue. […]

[3] = system: tau in tau P301S cortical primary neurons; experiment: Tau immunoblot of DIV18 tau P301S cortical primary neurons transduced with β-arrestin2 mutant lentivirus; assay type: cell-based, mice; conditions: DIV 18 tau P301S cortical primary neurons
Method: as §1
Primary mouse hippocampal and cortical neuronal cultures were previously described (Woo J A, et al. (2019) Commun Biol 2:112; Woo J A, et al. (2017) Hum Mol Genet 26(20):3973-3988; Woo J A, et al. (2015) Cell Death Differ 22(6):1069-1070). Briefly, primary neurons were prepared from P0 mice. Both hippocampus and cortex were dissected separately in HBSS and digested with trypsin. Neurons were plated on glass coverslips coated with poly-D-lysine (Sigma-Aldrich, St Louis, MO, USA) and maintained in neurobasal medium with glutamax (Invitrogen, Carlsbad, CA, USA) and B27 supplement (Invitrogen, Carlsbad, CA, USA). […]
When DIV 18 tau P301S cortical primary neurons were transduced with either β-arrestin2 ΔIP6C or ΔIP6N lentivirus, an approximately 50% reduction in tau compared to control was evident (FIGS. 4A,4B), which represents a key finding relevant to both mechanism of action and potential therapeutic strategies. […] To determine whether β-arrestin2 oligomerization status alters tau aggregation itself, filter-trap assays were performed from Hela-V5-tau cells transfected with β-arrestin2 variants, in which tau aggregates from detergent-soluble and-insoluble lysates were captured by cellulose acetate membranes and assessed by immunoblotting.

B1: β-arrestin2 ΔIP6N: β-arrestin2 N-terminal domain mutant (K158A, K161A, and R162A), incapable of forming oligomers; dominant negative (protein, UniProt P32121 1-409, looked up, variant K158A K161A R162A)
Beta-arrestin-2: MGEKPGTRVFKKSSPNCKLTVYLGKRDFVDHLDKVDPVDGVVLVDPDYLKDRKVFVTLTCAFRYGREDLDVLGLSFRKDLFIATYQAFPPVPNPPRPPTRLQDRLLRKLGQHAHPFFFTIPQNLPCSVTLQPGPEDTGKACGVDFEIRAFCAKSLEEASHAANSVRLVIRKVQFAPEKPGPQPSAETTRHFLMSDRSLHLEASLDKELYYHGEPLNVNVHVTNNSTKTVKKIKVSVRQYADICLFSTAQYKCPVAQLEQDDQVSPSSTFCKVYTITPLLSDNREKRGLALDGKLKHEDTNLASSTIVKEGANKEVLGILVSYRVKVKLVVSRGGDVSVELPFVLMHPKPHDHIPLPRPQSAAPETDVPVDTNLIEFDTNYATDDDIVFEDFARLRLKGMKDDDYDDQLC
modifications: GFP or YFP tag
notes: dominant negative
ratio of mCherry only to total puncta (p62 autophagy flux): significantly increased | tau turnover in cycloheximide chase [1]: enhancement of tau turnover | HA-p62 and GFP-p62 interaction by co-IP [2]: neither β-arrestin2 ΔIP6C nor β-arrestin2 ΔIP6N alone were capable of reducing HA-p62 and GFP-p62 interaction | reduction in tau compared to control [3]: approximately 50%
